Experimental data reported in IntAct's records for PubMed 10660620.

Target: pilra_human PILRA (UniProt Q9UKJ1)
Sequence (Q9UKJ1 whole entry): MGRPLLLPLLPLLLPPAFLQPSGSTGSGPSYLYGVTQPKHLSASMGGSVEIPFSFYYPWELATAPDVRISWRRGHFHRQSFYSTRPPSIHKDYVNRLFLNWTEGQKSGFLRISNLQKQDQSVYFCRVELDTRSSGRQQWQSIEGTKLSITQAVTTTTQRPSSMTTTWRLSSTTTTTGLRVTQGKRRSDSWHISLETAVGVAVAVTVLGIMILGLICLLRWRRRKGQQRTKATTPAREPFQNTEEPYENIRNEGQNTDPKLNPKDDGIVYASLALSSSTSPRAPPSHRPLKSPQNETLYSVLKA

Tyrosine-protein phosphatase non-receptor type 6 (Homo sapiens), P29350 D419A, sequence (P29350 whole entry D419A): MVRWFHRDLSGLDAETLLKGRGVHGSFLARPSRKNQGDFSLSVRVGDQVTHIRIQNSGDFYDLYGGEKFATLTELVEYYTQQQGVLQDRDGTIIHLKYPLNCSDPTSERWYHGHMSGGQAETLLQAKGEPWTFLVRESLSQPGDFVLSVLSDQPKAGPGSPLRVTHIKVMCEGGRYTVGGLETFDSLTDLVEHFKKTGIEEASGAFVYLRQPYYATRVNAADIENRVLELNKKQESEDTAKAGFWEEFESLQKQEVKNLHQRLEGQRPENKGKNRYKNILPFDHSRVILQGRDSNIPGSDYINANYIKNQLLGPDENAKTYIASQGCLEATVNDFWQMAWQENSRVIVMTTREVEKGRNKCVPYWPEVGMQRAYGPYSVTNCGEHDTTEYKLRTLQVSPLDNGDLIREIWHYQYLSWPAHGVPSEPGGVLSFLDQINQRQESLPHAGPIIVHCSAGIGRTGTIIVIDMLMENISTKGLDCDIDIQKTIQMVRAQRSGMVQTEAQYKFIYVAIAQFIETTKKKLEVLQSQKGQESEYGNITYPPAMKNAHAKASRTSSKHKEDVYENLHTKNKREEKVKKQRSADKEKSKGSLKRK

effect of a mutation on the interaction: increasing interaction
Substance: Tyrosine-protein phosphatase non-receptor type 6 (Homo sapiens), P29350 D419A
